In experiment [1] the target is Cagβ-AAD1 R375A (Helicobacter pylori 26695). Kind of experiment: ITC; ITC-200 at 25 °C; 20 mM Tris pH 8.0, 150 mM NaCl; Cagβ proteins (20 µM) in the cell, CagZ proteins or peptides (200 µM) in the syringe. Background: ITC needs no label: the signal is the heat of the interaction.
The target of experiment [2] is Cagβ-AAD1 K388A (Helicobacter pylori 26695). The experiment is described as above.
Experiment [3] has as its target Cagβ-AAD1 E396A (Helicobacter pylori 26695). The experiment is described as above.
For experiment [4], the target named is Cagβ-AAD1 D309A (Helicobacter pylori 26695). The experiment is described as above.
Experiment [5] has as its target Cagβ-AAD1 Y374F (Helicobacter pylori 26695). The experiment is described as above.
Experiment [6] deals with Cagβ-AAD1 N449A (Helicobacter pylori 26695). Described as above.
In experiment [7] the target is Cagβ-AAD1 N452A (Helicobacter pylori 26695). The experiment is described as above.
In experiment [8] the target is Cagβ-AAD1 N361A (Helicobacter pylori 26695). Described as above.
The target in experiment [9] is Cagβ-AAD1 (all-alpha domain of Cagβ, residues 289–488) (Helicobacter pylori 26695) (UniProt O25260). The description is as above.
The target in experiment [10] is Cagβ-AAD1 F358A (Helicobacter pylori 26695). Described as above.
Experiment [11] has as its target Cagβ-AAD1 E314A (Helicobacter pylori 26695). The experiment is described as above.
The target of experiment [12] is Cagβ-AAD1 N365A (Helicobacter pylori 26695). Described as above.
Experiment [13] deals with Cagβ-AAD1 D356A (Helicobacter pylori 26695). Described as above.
In experiment [14] the target is Cagβ-AAD1 E462A (Helicobacter pylori 26695). The description is as above.
The target of experiment [15] is Cagβ-AAD1 E350A (Helicobacter pylori 26695). The description is as above.
Experiment [16] deals with Cagβ-AAD1 S453A (Helicobacter pylori 26695). The experiment is described as above.
The target of experiment [17] is Cagβ-AAD1 T338A (Helicobacter pylori 26695). Described as above.
In experiment [18] the target is Cagβ-AAD1 D335A (Helicobacter pylori 26695). The description is as above.
The target of experiment [19] is Cagβ1 (soluble region of Cagβ, residues 166–748) (Helicobacter pylori 26695) (UniProt O25260). The experiment is described as follows: mass photometry; Cagβ1/CagZ complex (co-expressed, co-purified) at 0.06 µM; OneMP instrument (Refeyn).
The target of experiment [20] is T1, Cagβ-AAD1 (all-alpha domain of Cagβ, residues 289–488) (Helicobacter pylori 26695, UniProt O25260 289-488).
T1 construct: Cagβ (HP0524, Cag5) of H. pylori 26695, residues 289-488, holding the all-alpha domain (AAD); source: E. coli BL21 star (DE3), purified (Ni-NTA, TEV cleavage, second Ni-NTA, SEC); not shown: His6, N-terminal, cleaved; TrxA, N-terminal, cleaved
T1 sequence: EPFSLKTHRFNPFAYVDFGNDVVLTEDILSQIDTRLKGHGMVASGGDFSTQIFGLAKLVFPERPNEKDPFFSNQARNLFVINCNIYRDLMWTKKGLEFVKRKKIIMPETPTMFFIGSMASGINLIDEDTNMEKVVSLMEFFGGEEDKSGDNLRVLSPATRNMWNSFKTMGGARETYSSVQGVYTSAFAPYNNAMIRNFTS
Kind of experiment: ITC; ITC-200 at 25 °C; 20 mM Tris pH 8.0, 150 mM NaCl; Cagβ proteins (20 µM) in the cell, CagZ proteins or peptides (200 µM) in the syringe. Particulars: both partners purified.

In experiment [21] the target is T2, CagZ (residues 2-199), wild type (Helicobacter pylori 26695, UniProt B5Z6P9 2-199).
T2 construct: CagZ of Helicobacter pylori 26695, residues 2-199; also called CagZ-WT; source: E. coli BL21 star (DE3), purified (Ni-NTA, TEV, second Ni-NTA, SEC); not shown: His6, N-terminal, cleaved; TrxA, N-terminal, cleaved
T2 sequence: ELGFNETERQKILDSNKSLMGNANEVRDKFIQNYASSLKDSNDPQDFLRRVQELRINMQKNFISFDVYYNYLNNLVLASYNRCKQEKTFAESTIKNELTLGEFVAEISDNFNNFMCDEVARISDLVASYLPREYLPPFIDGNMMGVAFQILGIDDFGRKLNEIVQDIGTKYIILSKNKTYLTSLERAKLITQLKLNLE
The experiment is described as follows: ITC; ITC-200, 25 °C, 20 mM Tris pH 8.0, 150 mM NaCl; Cagβ proteins (20 µM) in the cell, CagZ proteins (200 µM) in the syringe. Particulars: both partners purified.

The target in experiment [22] is T3, Cagβ-AAD1 (residues 289-488), wild type (Helicobacter pylori 26695, UniProt O25260 289-488).
T3 construct: Cagβ (HP0524, Cag5) of Helicobacter pylori 26695, residues 289-488, holds the all-alpha domain (AAD); also called Cagβ-AAD1_WT; Cagβ-AAD1 (289-488); source: E. coli BL21 star (DE3), purified (Ni-NTA, TEV, second Ni-NTA, SEC); not shown: His6, N-terminal, cleaved; TrxA, N-terminal, cleaved
T3 sequence: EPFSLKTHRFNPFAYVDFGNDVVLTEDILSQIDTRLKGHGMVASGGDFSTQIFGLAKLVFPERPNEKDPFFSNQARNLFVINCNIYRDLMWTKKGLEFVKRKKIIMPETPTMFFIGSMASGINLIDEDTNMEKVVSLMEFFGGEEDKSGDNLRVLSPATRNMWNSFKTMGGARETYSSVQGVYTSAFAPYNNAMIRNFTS
Described as above. The following applies: both partners purified.

As usually defined, the Kd is the equilibrium constant for the complex coming apart. Low values mean higher affinity, high ones lower affinity. As to “CagZ (residues 2–199), expressed separately from pET-32a (from UniProt O25261 2-199) (natural protein)”, the Kd stood at 1460 nM in experiment [1]; 40 nM in experiment [2]; 40 nM in [3]; 70 nM in [4]; 20 nM in experiment [5]; 20 nM in [6].

Consider CagZ D125A (natural protein), for which, in [7], the equilibrium dissociation constant (Kd) was 60 nM.

CagZ D155A (natural protein) returned a Kd in [8] of 60 nM.

CagZ E199A (natural protein) gave a dissociation constant Kd in experiment [9] of 40 nM.

In turn, CagZ F149A (natural protein) yielded a Kd in [10] of 410 nM.

In experiment [11], CagZ K85A (natural protein) returned an equilibrium dissociation constant (Kd) of 80 nM.

CagZ N162A (natural protein) registered an equilibrium dissociation constant (Kd) in experiment [12] of 40 nM.

On to CagZ N178A (natural protein), for which the Kd was 8770 nM in experiment [1] and 150 nM in experiment [9].

In [9], CagZ N178A/Y181A (natural protein) gave a Kd of 1500 nM.

Consider CagZ Q150A (natural protein), for which, in experiment [13], the Kd is 50 nM.

Consider CagZ R133A (natural protein), for which the dissociation constant (Kd) in experiment [14] is 20 nM.

CagZ R159A (natural protein) registered a Kd in experiment [15] of 40 nM.

In [9], CagZ R187A (natural protein) had a dissociation constant Kd of 16900 nM.

CagZ S124A (natural protein) had a Kd in experiment [16] of 20 nM.

For the molecule CagZ S184A (natural protein), the Kd in experiment [9] came to 70 nM.

For the molecule CagZ T170A (natural protein), the Kd in experiment [17] and in [18] was 90 nM in each case.

In turn, CagZ Y81F (natural protein) gave a Kd in experiment [11] of 90 nM.

As for CagZ Y181A (natural protein), the figures for the Kd in experiment [1] and in experiment [9] were 35700 nM and 560 nM, respectively.

The term stoichiometry N denotes a count of units in the complex or per binding partner. In [19], “CagZ co-expressed with Cagβ1 from pET-28a (natural protein)” showed a percent of the protein in the 1:1 complex of 88% and a stoichiometry N of 1.

B1: CagZ-20 (peptide of the CagZ C-terminal tail, residues 176–195) (peptide)
peptide: SKNKTYLTSLERAKLITQLK
notes: CagZ of H. pylori, C-terminal tail, residues 176-195; source: synthetic peptide (Genscript)
In turn, B1 gave an equilibrium dissociation constant (Kd) in [20] of 42000 nM.

B2: CagZ-24 (peptide of the CagZ C-terminal tail, residues 176–199) (peptide)
peptide: SKNKTYLTSLERAKLITQLKLNLE
notes: CagZ of H. pylori, C-terminal tail, residues 176-199; source: synthetic peptide (Genscript)
Consider B2, for which binding in [20] was characterised by a dissociation constant (Kd) of 330 nM.

B3: Cagβ-AAD3 (residues 299-488) (domain or fragment)
chain: NPFAYVDFGNDVVLTEDILSQIDTRLKGHGMVASGGDFSTQIFGLAKLVFPERPNEKDPFFSNQARNLFVINCNIYRDLMWTKKGLEFVKRKKIIMPETPTMFFIGSMASGINLIDEDTNMEKVVSLMEFFGGEEDKSGDNLRVLSPATRNMWNSFKTMGGARETYSSVQGVYTSAFAPYNNAMIRNFTS
notes: Cagβ (HP0524, Cag5) of Helicobacter pylori 26695, residues 299-488, holds the all-alpha domain (AAD); also called Cagβ-AAD3 (299-488); source: E. coli BL21 star (DE3), purified (Ni-NTA, TEV, second Ni-NTA, SEC); not shown: His6, N-terminal, cleaved; TrxA, N-terminal, cleaved
As for B3, in experiment [21], binding was characterised by a dissociation constant (Kd) of 190 nM.

B4: CagZ (residues 2-199) E199A (natural protein)
chain: ELGFNETERQKILDSNKSLMGNANEVRDKFIQNYASSLKDSNDPQDFLRRVQELRINMQKNFISFDVYYNYLNNLVLASYNRCKQEKTFAESTIKNELTLGEFVAEISDNFNNFMCDEVARISDLVASYLPREYLPPFIDGNMMGVAFQILGIDDFGRKLNEIVQDIGTKYIILSKNKTYLTSLERAKLITQLKLNLA
notes: CagZ of Helicobacter pylori 26695, residues 2-199, with E199A; source: E. coli BL21 star (DE3), purified as the wild type but without TEV protease treatment; not shown: His6, N-terminal, kept; TrxA, N-terminal, kept
B4: the Kd in experiment [22] was ~50 nM.

B5: CagZ (residues 2–199), expressed separately from pET-32a (natural protein)
chain: ELGFNEAERQKILDSNSSLMGNANEVRDKFIQNYASSLKDSNDPQDFLRRVQELRINMQKNFISFDVYYNYLNNLVLASYNRCKQEKTFAESTIKNELTLGEFVAEISDNFNNFMCDEVARISDLVASYLPREYLPPFIDGNMMGVAFQILGIDDFGRKLNEIVQDIGTKYIILSKNKTYLTSLERAKLITQLKLNLE
notes: CagZ of H. pylori 26695, residues 2-199; also called WT; full-length CagZ; source: E. coli BL21 star (DE3), purified (Ni-NTA, TEV cleavage, second Ni-NTA, SEC); not shown: His6, N-terminal, cleaved; TrxA, N-terminal, cleaved
In experiment [20], B5 yielded a dissociation constant (Kd) of 90 nM.

(Values after PMC9886983, “Mechanism of regulation of the Helicobacter pylori Cagβ ATPase by CagZ” (Nature Communications, 2023).)
